In US11661461B2, “Phospho-Rab antibodies, assays and methods of use thereof” (Denali Therapeutics Inc., priority 2017, dated 2023):
Changes are numbered by the printed parent chain.

What was measured:
LRRK2 = biological target: T1, LRRK2 (Rattus norvegicus, UniProt F1LNJ1); experiment: 10-day oral dosing study in rats, pT73-Rab10 and pS935-LRRK2 western blot; format: in vivo; settings: for pT73-Rab10, Brain / pT73-Rab10, Lung / pS935-LRRK2, Brain / pS935-LRRK2, Lung: rats, daily oral 10 days, mean with SEM; for pT73-Rab10, Brain / pT73-Rab10, Lung: normalized to actin and vehicle control group; for pS935-LRRK2, Brain / pS935-LRRK2, Lung: normalized to vinculin and vehicle control group
T1 construct: from tissue; host or cells: rat brain and lung (in vivo dosing)
Experimental: Dose-dependent inhibition of pT73-Rab10 was tested in a 10-day oral dosing study in rats. Rats were dosed daily with the LRRK2 Inhibitor B at a dose of 10 mg/kg, 30 mg/kg, or 45 mg/kg. Tissues (brain and lung) were harvested, homogenized and analyzed by western blot. […] Signals from dosed groups were normalized to vehicle control group. Data were presented as mean with SEM.

[1] = biological target: T2, endogenous phosphorylated Rab10 in human PBMC (Homo sapiens, UniProt P61026); experiment: Western blot of human PBMC with anti-pT73-Rab10 antibodies; format: binding; settings: for detection of endogenous phosphorylated Rab10 signals in human PBMC by western blot: antibody at 1 ug/ml; for Western blot Human PBMC Ratio of DMSO/LRRK2 inhibitor A (mean ± SEM): band intensity normalized with Actin control for each of DMSO and LRRK2 inhibitor A, antibody 1 ug/ml
T2 construct: Strong endogenous phosphorylated Rab10 or phosphorylated Rab8a in human PBMC; host or cells: human PBMC
T2 sequence (P61026 1-200): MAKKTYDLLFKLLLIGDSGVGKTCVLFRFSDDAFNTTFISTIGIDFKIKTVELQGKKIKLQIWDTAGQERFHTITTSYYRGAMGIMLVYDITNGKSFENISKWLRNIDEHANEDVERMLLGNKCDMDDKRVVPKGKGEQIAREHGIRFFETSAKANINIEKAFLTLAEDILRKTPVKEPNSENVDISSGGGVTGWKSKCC

[2] = biological target: T3, phosphorylated Rab10 in lysates of HEK cells overexpressing LRRK2 (Homo sapiens, UniProt P61026); experiment: Sandwich ELISA (diagnostic), HEK cells overexpressing LRRK2; format: binding; settings: for Sandwich ELISA (diagnostic), Ratio: DMSO / LRRK2 inhibitor A RLU; for Sandwich ELISA (diagnostic) HEK cells overexpressing LRRK2, DMSO (RLU mean ± SD): DMSO treated cells; for Sandwich ELISA (diagnostic) HEK cells overexpressing LRRK2, LRRK2 inhibitor A (RLU mean ± SD): cells treated with LRRK2 inhibitor A
T3 construct: expressed in transfected cells; host or cells: HEK cells overexpressing LRRK2
T3 sequence (P61026 1-200): T2 sequence (P61026 1-200)
Experimental: Sandwich ELISA (Diagnostic) with Anti-Phospho-Rab10 Antibody as the Capture Antibody:
ELISA plates were prepared by coating white Nunc MaxiSorp 384 well plates (Thermo Fisher #460372/Sigma #P6491) with capture antibody for 1 hour at room temperature on a shaking platform. The capture antibody was purified anti-phospho-Rab10 clone 19-4 diluted to 1 ug/mL in carbonate-bicarbonate buffer, and 15 uL/well of coating solution was added to the plate before incubation. Plates were then washed 3× with TBST on a BioTek plate washer. For all subsequent blocking/incubation steps, Pierce Starting Block T20 (TBS) was used (Thermo Fisher #37543). Plates were blocked […] in this solution using 80 uL/well and washed 3× as before. Afterwards samples of cell lysates were added (neat with no dilution) using 30 uL/well and incubated 1 hour at room temperature on a shaking platform. After another 3× wash detection antibody (Creative Diagnostics DCABH 13141, or Abcam, ab104859, 2 ug/mL) was added using 30 uL/well. After 60 minute incubation at room temperature and washing 3×, the secondary anti-species conjugate was added (anti-rabbit HRP antibody (Jackson ImmunoResearch 111-035-144) diluted 1:20000 in assay diluent) at 30 uL/well. After a 60 minute incubation, plates were washed 3× as before. The HRP substrate (Supersignal ELISA Femto HRP substrate—Thermo Fisher #37075) was prepared during this time by mixing both components and equilibrating to room temperature. 50 uL/well of substrate was added to plates, which then were covered and briefly incubated for 1-2 minutes on a shaker platform. Afterwards plates were read on the Synergy plate reader to measure relative light units (RLU).
Sandwich ELISA (Diagnostic) with Anti-Rab10 (Total) Antibody as the Capture Antibody:
ELISA plates were prepared by coating white Nunc MaxiSorp 384 well plates (Thermo Fisher #460372/Sigma # P6491) with capture antibody overnight at 4° C. on a shaking platform. The capture antibodies (anti-Rab10 antibody from either Creative Diagnostics, DCABH-13141, or Abcam, ab104859) were diluted to […] (or 1:100 if the concentration not known) in carbonate-bicarbonate buffer, and 15 uL/well of coating solution was added to the plate before incubation. After this plates were washed 3× with TBST on a BioTek plate washer. For all subsequent blocking/incubation steps, Pierce Starting Block (TBS) (no Tween added) was used (Thermo Fisher #37542). Plates were blocked for 1 hour at room temperature in this solution using 80 uL/well and washed 3× as before. Afterwards samples were added (with lysates being diluted 1:20 in the assay diluent) using 30 uL/well and incubated 2 hours at room temperature on a shaking platform. After another 3× wash detection antibodies were added (diluted to 1 ug/mL for purified antibodies or 1:2 for supernatants) using 30 uL/well. After 90 minute incubation at room temperature and washing 3× the secondary anti-species conjugate was added (anti-rabbit HRP antibody (Jackson ImmunoResearch 111-035-144) diluted 1:20000 in assay diluent) at 30 uL/well. After a 45 minute incubation plates were washed 3× as before. The HRP substrate (Supersignal ELISA Femto HRP substrate—Thermo Fisher #37075) was prepared during this time by mixing both components and equilibrating to room temperature. 50 uL/well of substrate was added to plates, which then were covered and briefly incubated for 1-2 minutes on a shaker platform. Afterwards plates were read on the Synergy plate reader to measure relative light units (RLU).

T1 sequence (F1LNJ1 1-2526): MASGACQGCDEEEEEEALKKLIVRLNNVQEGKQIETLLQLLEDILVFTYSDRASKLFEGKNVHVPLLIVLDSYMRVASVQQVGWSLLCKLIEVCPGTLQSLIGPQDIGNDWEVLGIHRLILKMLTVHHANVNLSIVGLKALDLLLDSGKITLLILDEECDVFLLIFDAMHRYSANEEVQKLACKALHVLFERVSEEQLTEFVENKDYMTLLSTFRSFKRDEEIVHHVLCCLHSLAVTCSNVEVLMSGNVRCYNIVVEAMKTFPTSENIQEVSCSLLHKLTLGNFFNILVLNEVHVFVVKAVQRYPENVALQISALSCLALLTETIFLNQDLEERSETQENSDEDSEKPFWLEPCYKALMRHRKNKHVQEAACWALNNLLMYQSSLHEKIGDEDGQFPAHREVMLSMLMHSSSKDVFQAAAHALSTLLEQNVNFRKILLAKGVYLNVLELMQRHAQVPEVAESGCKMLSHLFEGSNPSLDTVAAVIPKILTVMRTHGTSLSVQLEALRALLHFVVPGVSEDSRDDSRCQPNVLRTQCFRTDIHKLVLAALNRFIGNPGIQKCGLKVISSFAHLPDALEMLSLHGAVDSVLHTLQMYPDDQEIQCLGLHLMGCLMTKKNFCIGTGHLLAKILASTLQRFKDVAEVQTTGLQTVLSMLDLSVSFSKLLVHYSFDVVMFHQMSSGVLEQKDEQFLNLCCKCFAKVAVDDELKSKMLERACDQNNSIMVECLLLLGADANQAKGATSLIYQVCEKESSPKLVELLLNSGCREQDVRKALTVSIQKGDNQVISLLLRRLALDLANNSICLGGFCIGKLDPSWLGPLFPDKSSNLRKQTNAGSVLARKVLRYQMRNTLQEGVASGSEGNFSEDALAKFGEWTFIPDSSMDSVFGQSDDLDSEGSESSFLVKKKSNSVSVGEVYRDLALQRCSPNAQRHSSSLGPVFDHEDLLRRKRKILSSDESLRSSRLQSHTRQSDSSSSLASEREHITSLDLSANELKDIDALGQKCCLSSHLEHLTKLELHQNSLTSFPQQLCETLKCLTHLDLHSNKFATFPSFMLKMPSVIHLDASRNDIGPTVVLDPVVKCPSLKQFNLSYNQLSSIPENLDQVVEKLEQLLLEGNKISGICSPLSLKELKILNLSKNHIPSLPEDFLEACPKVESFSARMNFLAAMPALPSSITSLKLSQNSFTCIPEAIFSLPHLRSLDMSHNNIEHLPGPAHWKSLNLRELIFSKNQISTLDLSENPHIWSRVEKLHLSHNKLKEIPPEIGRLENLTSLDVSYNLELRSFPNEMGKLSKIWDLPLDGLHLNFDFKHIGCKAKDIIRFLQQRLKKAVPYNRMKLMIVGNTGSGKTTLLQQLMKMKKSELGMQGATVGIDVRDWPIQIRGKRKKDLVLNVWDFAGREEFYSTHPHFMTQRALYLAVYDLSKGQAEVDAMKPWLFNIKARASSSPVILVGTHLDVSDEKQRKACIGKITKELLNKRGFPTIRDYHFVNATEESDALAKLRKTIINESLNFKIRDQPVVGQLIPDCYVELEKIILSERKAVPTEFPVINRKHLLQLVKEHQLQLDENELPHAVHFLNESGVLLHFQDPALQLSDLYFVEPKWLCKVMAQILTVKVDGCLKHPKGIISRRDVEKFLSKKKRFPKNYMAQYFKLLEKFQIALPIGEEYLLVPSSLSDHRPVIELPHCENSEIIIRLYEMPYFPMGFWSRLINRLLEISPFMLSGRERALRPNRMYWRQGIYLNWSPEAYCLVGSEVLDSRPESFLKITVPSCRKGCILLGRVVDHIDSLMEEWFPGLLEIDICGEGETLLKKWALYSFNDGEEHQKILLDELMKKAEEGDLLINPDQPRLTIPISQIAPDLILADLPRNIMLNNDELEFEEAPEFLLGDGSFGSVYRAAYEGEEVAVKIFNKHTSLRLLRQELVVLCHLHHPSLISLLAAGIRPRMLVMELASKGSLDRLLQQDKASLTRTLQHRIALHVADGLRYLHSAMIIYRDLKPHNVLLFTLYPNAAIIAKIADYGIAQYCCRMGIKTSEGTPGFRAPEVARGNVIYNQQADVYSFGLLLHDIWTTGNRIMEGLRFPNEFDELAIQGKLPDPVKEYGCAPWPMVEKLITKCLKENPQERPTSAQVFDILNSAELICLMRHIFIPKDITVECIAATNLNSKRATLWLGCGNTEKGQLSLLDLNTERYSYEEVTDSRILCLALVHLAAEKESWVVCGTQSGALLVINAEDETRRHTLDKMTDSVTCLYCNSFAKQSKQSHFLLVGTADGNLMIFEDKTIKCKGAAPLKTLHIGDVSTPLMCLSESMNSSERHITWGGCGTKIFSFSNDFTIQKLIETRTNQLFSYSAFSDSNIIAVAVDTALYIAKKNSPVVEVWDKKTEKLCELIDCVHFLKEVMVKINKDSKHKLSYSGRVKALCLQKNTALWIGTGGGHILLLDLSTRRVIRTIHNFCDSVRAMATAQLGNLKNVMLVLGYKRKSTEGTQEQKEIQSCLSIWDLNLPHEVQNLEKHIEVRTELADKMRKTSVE

Molecule: CNc1nc(Nc2cn(C(C)(C)C#N)nc2C)ncc1C(F)(F)F [LRRK2 Inhibitor B, 2-methyl-2-(3-methyl-4-(4-(methylamino)-5-(trifluoromethyl)pyrimidin-2-ylamino)-1H-pyrazol-1-yl)propanenitrile]
- dephosphorylation of pS935-LRRK2 and pT73-Rab10 (LRRK2; rats, 10, 30 or 45 mg/kg daily oral, 10 days, brain and lung): comparable dose-dependent dephosphorylation
- pT73-Rab10, Brain (LRRK2; High dose (doses 10, 30, 45 mg/kg), N = 5): 0.225 ± 0.0394
- pT73-Rab10, Lung (LRRK2; High dose): 0.109 ± 0.0126
- pS935-LRRK2, Brain (LRRK2; High dose): 0.04 ± 0.016
- pS935-LRRK2, Lung (LRRK2; High dose): 0.076 ± 0.022
- pT73-Rab10, Brain (LRRK2; Low dose (doses 10, 30, 45 mg/kg), N = 6): 0.676 ± 0.102
- pT73-Rab10, Lung (LRRK2; Low dose): 0.25 ± 0.0126
- pS935-LRRK2, Brain (LRRK2; Low dose): 0.693 ± 0.164
- pS935-LRRK2, Lung (LRRK2; Low dose): 0.295 ± 0.026
- pT73-Rab10, Brain (LRRK2; Medium dose (doses 10, 30, 45 mg/kg), N = 6): 0.268 ± 0.0745
- pT73-Rab10, Lung (LRRK2; Medium dose): 0.133 ± 0.0137
- pS935-LRRK2, Brain (LRRK2; Medium dose): 0.086 ± 0.021
- pS935-LRRK2, Lung (LRRK2; Medium dose): 0.094 ± 0.012

B1: Clone 5: anti-phosphorylated (pT73) Rab10 rabbit monoclonal antibody; VH SEQ ID NO:1, VL SEQ ID NO:5 (antibody, V domains shown)
VH: METGLRWLLLVAVLKGVQCQSVEESGGRLVTPGTPLTLTCTVSGFSLSSYAMVWVRQAPGKGLEYIGLISRSGVTYYATWAKGRFTISKASTTVDLKIASPTTGDTATYFCVRDYDINGWSGFTIWGPGTLVTVSA
VL: MDTRAPTQLLGLLLWLPGAICDPVMTQTPSSTSAAVGGTVTINCQSSQSVYGNNYFSWYQQKPGQPPKLLIYKASTLASGVPSRFKGSGSGTQFTLTISDLECDDAATYYCAGAASDTRFFGGGTELVVN
- detection of endogenous phosphorylated Rab10 signals in human PBMC by western blot [1]: detected endogenous phosphorylated Rab signals
- Western blot Human PBMC Ratio of DMSO/LRRK2 inhibitor A (mean ± SEM) [1]: 3.45 ± 0.53
- Sandwich ELISA (diagnostic), Ratio [2]: 23.63
- Sandwich ELISA (diagnostic) HEK cells overexpressing LRRK2, DMSO (RLU mean ± SD) [2]: 85175 ± 16412 RLU
- Sandwich ELISA (diagnostic) HEK cells overexpressing LRRK2, LRRK2 inhibitor A (RLU mean ± SD) [2]: 3604 ± 1165 RLU

B2: Clone 19: anti-phosphorylated (pT73) Rab10 rabbit monoclonal antibody; VH SEQ ID NO:11, VL SEQ ID NO:13 (antibody, V domains shown)
VH: B1 VH with I117S, N118A
VL: MDTRAPTQLLGLLLLWLPGAICDPVMTQTPSSTSAAVGGTVTINCQSSQSVYGNNYLSWYQQKPGQPPKLLIYKASTLASGVPSRSVGSGSGTQFTLTISDLECDDAATYYCAGAASDTRFFGGGTELVVN
- detection of endogenous phosphorylated Rab10 signals in human PBMC by western blot [1]: detected endogenous phosphorylated Rab signals
- Western blot Human PBMC Ratio of DMSO/LRRK2 inhibitor A (mean ± SEM) [1]: 3.39 ± 0.89

B3: Clone 133-2: anti-phosphorylated (pT73) Rab10 rabbit monoclonal antibody; VH SEQ ID NO:31, VL SEQ ID NO:35 (antibody, V domains shown)
VH: METGLRWLLLVAVLKGVQCQEQLVESGGGLVQPEGSLTLTCKASGFDLSSHYYMCWVRQAPGKGLEWIVCISNGSGNTYYASWAKGRFTISKTSSTTVTLHMTSLTVADTATYFCARNFGSNYGDAFDPWGPGTLVTVSS
VL: MDTRAPTQLLGLLLLWLPGATFAQVLTQTPSPVSAAVGGTVTISCQSSKSVYSNNYLSWYQQKPGQPPKLLIYSASILASGVPSRFSGSGSGTQFTLTISGVQCDDAATYYCQGSYAGSGWYIGFGGGTEVVVK
- Sandwich ELISA (diagnostic), Ratio [2]: 2.25
- Sandwich ELISA (diagnostic) HEK cells overexpressing LRRK2, DMSO (RLU mean ± SD) [2]: 18605 ± 4874 RLU
- Sandwich ELISA (diagnostic) HEK cells overexpressing LRRK2, LRRK2 inhibitor A (RLU mean ± SD) [2]: 8265 ± 1428 RLU

B4: Clone 153-2: anti-phosphorylated (pT73) Rab10 rabbit monoclonal antibody; VH SEQ ID NO:39, VL SEQ ID NO:43 (antibody, V domains shown)
VH: METGLRWLLLVAVLKGVQCQSVEESGGRLVTPGTPLTLTCTASGFSLSTYYMSWVRQAPGKGLEWIGIINTGGIVHYANWVRGRFTISKTSTTVDLRITSPTAEDTATYFCARAYSADRLDLWGQGTLVTVSS
VL: MDTRAPTQLLGLLLLWLPGATFAAVLTQTPSPVSAAVGGTVTISCQSSESVYGNNRLSWYQQKPGQPPKLLMYYASTLASGVPSRFRGSGSGTQFTLTISDVQCDDAASYYCLGGYKRDSNNAFGGGTEVVVK
- Sandwich ELISA (diagnostic), Ratio [2]: 141.26
- Sandwich ELISA (diagnostic) HEK cells overexpressing LRRK2, DMSO (RLU mean ± SD) [2]: 596606 ± 80346 RLU
- Sandwich ELISA (diagnostic) HEK cells overexpressing LRRK2, LRRK2 inhibitor A (RLU mean ± SD) [2]: 4223 ± 293 RLU

B5: Clone 247-8: anti-phosphorylated (pT73) Rab10 rabbit monoclonal antibody; VH SEQ ID NO:47, VL SEQ ID NO:51 (antibody, V domains shown)
VH: B1 VH with V53G, L68I, V74I, K97R, G104E, Y109F, I117S, N118S, T124N, A136L
VL: MDTRAPTQLLGLLLLWLPGAICDPVMTQTPSSTSAAVGGTVTINCQSSQSVYGNNYLSWFQQKPGQPPKLLIYKASTLASGVPSRFKGSGSGTQFTLTISGVQCDDAATYYCAGAYSDNRVFGGGTEVVVK
- Sandwich ELISA (diagnostic), Ratio [2]: 7.20
- Sandwich ELISA (diagnostic) HEK cells overexpressing LRRK2, DMSO (RLU mean ± SD) [2]: 13096 ± 1715 RLU
- Sandwich ELISA (diagnostic) HEK cells overexpressing LRRK2, LRRK2 inhibitor A (RLU mean ± SD) [2]: 1820 ± 276 RLU

B6: Clone 256-6: anti-phosphorylated (pT73) Rab10 rabbit monoclonal antibody; VH SEQ ID NO:53, VL SEQ ID NO:56 (antibody, V domains shown)
VH: B1 VH with S49N, I117A
VL: B2 VL with S86F, V87K, E103D, L128V, N131K
- Sandwich ELISA (diagnostic), Ratio [2]: 77.37
- Sandwich ELISA (diagnostic) HEK cells overexpressing LRRK2, DMSO (RLU mean ± SD) [2]: 212085 ± 27432 RLU
- Sandwich ELISA (diagnostic) HEK cells overexpressing LRRK2, LRRK2 inhibitor A (RLU mean ± SD) [2]: 2741 ± 309 RLU
